Assay results: PMC8597016

Target: Biotinylated CD11b I domain (human)
Assay: BLI

| Substance | Kd |
| --- | --- |
| CC30 LukAB (complex) | 214 nM |
| CC8 LukAB (complex) | 9.41 nM |
